According to PMC11885566:

Target: stable soluble Omicron EG.5.1 (6P) S trimer (SARS-CoV-2)
Experiment: cryo-EM structure

## stable soluble Omicron EG.5.1 (6P) S trimer (domain or fragment)
  stoichiometry N: 3
